Assay results reported in publication PMC9157457 (The Journal of Biological Chemistry, 2022).

Molecular target: the molecule itself
Assay: cryo-EM structure

B1: Photobacterium phosphoreum LuxC (acyl-CoA reductase) (enzyme)
chain: IKKIPMIIGGAERDTSEHEYRELTLNSYKVSIPIINQDDVEAIKSQSVENNLNINQIVNFLYTVGQKWKSENYSRRLTYIRDLVRFLGYSPEMAKLEANWISMILSSKSALYDIVETELGSRHIVDEWLPQGDCYVKAMPKGKSVHLLAGNVPLSGVTSIIRAILTKNECIIKTSSADPFTAIALASSFIDTDEHHPISRSMSVMYWSHNEDIAIPQQIMNCADVVVSWGGYDAIKWATEHTPVNVDILKFGPKKSIAIVDNPVDITASAIGVAHDICFYDQQACFSTQDIYYIGDNIDAFFDELVEQLNLYMDILPKGDQTFDEKASFSLIEKECQFAKYKVEKGDNQSWLLVKSPLGSFGNQPLARSAYIHHVSDISEITPYIENRITQTVTVTPWESSFKYRDVLASHGAERIVESGMNNIFRVGGAHDGMRPLQRLVKYISHERPYTYSTKDVAVKIEQTRYLEEDKFLVFVP
stoichiometry N: 4
